Laboratory results reported in PMC8020832.

target: 18 Env antigens; assay: ELISA

Binder	mean fold change in ELISA binding titer (OD450) versus parental 2411a [fold]
2411a revertant of heavy chain Y33V/M34L (CDR H1) (antibody, V domains shown) VH: QVQLVQSGAEMKKPGASVRVSCEASGYTFTDYYMHWMRQAPGQGIEWLGWIKPRYGAVNYAHKFQGRVSMTRDTSIDTAYLELINLRSDDTAIYYCARSFDSDYEWWFTYWGQGTLVSVSA VL: EIVLTQSPGTLSLSPGERATLSCRASYFISRDYLAWYQQRPGQAPKLLIYGTTTRASGIPDRFSGSGSGTDFTLTISRLEPEDFAVYYCQQYEFFGLGTKVEIK	3.9
2411a revertant of heavy chain Q61H (CDR H2) (antibody, V domains shown) VH: QVQLVQSGAEMKKPGASVRVSCEASGYTFTDYVLHWMRQAPGQGIEWLGWIKPRYGAVNYAQKFQGRVSMTRDTSIDTAYLELINLRSDDTAIYYCARSFDSDYEWWFTYWGQGTLVSVSA VL: EIVLTQSPGTLSLSPGERATLSCRASYFISRDYLAWYQQRPGQAPKLLIYGTTTRASGIPDRFSGSGSGTDFTLTISRLEPEDFAVYYCQQYEFFGLGTKVEIK	1.4
2411a revertant of heavy chain G56A/T57V (CDR H2) (antibody, V domains shown) VH: QVQLVQSGAEMKKPGASVRVSCEASGYTFTDYVLHWMRQAPGQGIEWLGWIKPRYGGTNYAHKFQGRVSMTRDTSIDTAYLELINLRSDDTAIYYCARSFDSDYEWWFTYWGQGTLVSVSA VL: EIVLTQSPGTLSLSPGERATLSCRASYFISRDYLAWYQQRPGQAPKLLIYGTTTRASGIPDRFSGSGSGTDFTLTISRLEPEDFAVYYCQQYEFFGLGTKVEIK	5.5
2411a revertant of light chain S27aF (CDR L1) (antibody, V domains shown) VH: QVQLVQSGAEMKKPGASVRVSCEASGYTFTDYVLHWMRQAPGQGIEWLGWIKPRYGAVNYAHKFQGRVSMTRDTSIDTAYLELINLRSDDTAIYYCARSFDSDYEWWFTYWGQGTLVSVSA VL: EIVLTQSPGTLSLSPGERATLSCRASYSISRDYLAWYQQRPGQAPKLLIYGTTTRASGIPDRFSGSGSGTDFTLTISRLEPEDFAVYYCQQYEFFGLGTKVEIK	1.6
2411a revertant of light chain Q27Y (CDR L1) (antibody, V domains shown) VH: QVQLVQSGAEMKKPGASVRVSCEASGYTFTDYVLHWMRQAPGQGIEWLGWIKPRYGAVNYAHKFQGRVSMTRDTSIDTAYLELINLRSDDTAIYYCARSFDSDYEWWFTYWGQGTLVSVSA VL: EIVLTQSPGTLSLSPGERATLSCRASQFISRDYLAWYQQRPGQAPKLLIYGTTTRASGIPDRFSGSGSGTDFTLTISRLEPEDFAVYYCQQYEFFGLGTKVEIK	1.8
2411a revertant of heavy chain N52K (CDR H2) (antibody, V domains shown) VH: QVQLVQSGAEMKKPGASVRVSCEASGYTFTDYVLHWMRQAPGQGIEWLGWINPRYGAVNYAHKFQGRVSMTRDTSIDTAYLELINLRSDDTAIYYCARSFDSDYEWWFTYWGQGTLVSVSA VL: EIVLTQSPGTLSLSPGERATLSCRASYFISRDYLAWYQQRPGQAPKLLIYGTTTRASGIPDRFSGSGSGTDFTLTISRLEPEDFAVYYCQQYEFFGLGTKVEIK	5.4
2411a revertant of heavy chain N53R/S54Y (CDR H2) (antibody, V domains shown) VH: QVQLVQSGAEMKKPGASVRVSCEASGYTFTDYVLHWMRQAPGQGIEWLGWIKPNSGAVNYAHKFQGRVSMTRDTSIDTAYLELINLRSDDTAIYYCARSFDSDYEWWFTYWGQGTLVSVSA VL: EIVLTQSPGTLSLSPGERATLSCRASYFISRDYLAWYQQRPGQAPKLLIYGTTTRASGIPDRFSGSGSGTDFTLTISRLEPEDFAVYYCQQYEFFGLGTKVEIK	6.5
